Source: publication PMC11952088 (Science Advances, 2025)

Target: SARS-CoV-2 XBB.1.5 RBD (BLI) (SARS-CoV-2, Omicron XBB.1.5, strain)
Test: BLI
Details: both partners purified

B1: AZD3152 (antibody, V domains shown)
VH: EVQLVESGGGLVQPGRSLRLSCAASGFPFDDYAIHWVRLAPGKGLEWVSSISWDSGSIGYADSVKGRFTISRDNAKNSLYLQMNSLRAEDTALYYCAKGAFPGYSSGWYYGLEVWGQGTTVTVSS
VL: QSVVTQPPSASGSLGQSVTISCTGTSSDVGGYNYVSWYQQHPGKAPKLMIFEVSKRPSGVPDRFSGSKSGNTASLTVSGLQAEDEADYYCSSYAGNKGVFGGGTKLTVL
Q: For B1, which Kd is on record?
A: 2 nM
